These results are taken from patent publication US20090054362.

pIC50, pKd: −log10 of the molar value.

For series [1], the target named is HIV-1 Ba-L virus (envelope gp120) (HIV-1 Ba-L) (UniProt P03375). The experiment in a line: cell_activity. As to conditions: 2'-F C and U; neutralization in human PBMCs, p24 ELISA.
For series [2], the target named is gp120 (SU envelope glycoprotein) (HIV-1 Ba-L) (UniProt P03375). Description: EMSA. As to conditions: 2'-F C and U, tRNA, room temp, also dose-dependent SPR.

The sequence “GGGAGACAAGACUAGACGCUCAAUGUGGGCCACGCCCGAUUUUACGCUUUUACCCGCACGCGAUUGGUUUGUUUCCC [B40t77]” gave a pIC50 in series [1] of 8.70. The sequence further showed a pKd in series [2] (1x cHBS) of 7.51.

“GGGAGACAAGACUAGACGCUCAAUGUGGGCCACGCCCGAUUUUACGCUUUUACCCGCACGCGAUUGGUUUGUUUUCGACAUGAGACUCACAACAGUUCCCUUUAGUGAGGGUUAAUU [B40]” had a pIC50 in series [1] of 8.70. The sequence further showed a pKd in series [2] (1x cHBS (10 mM HEPES pH 7.4, 150 mM NaCl, 1 mM CaCl2, 1 mM MgCl2, 2.7 mM KCl)) of 7.68.
